Laboratory results: patent US20230405133A1, “PURIFIED MULTIVALENT PROTEIN-HYALURONIC ACID POLYMER CONJUGATES” (Valitor, Inc., priority 2022, published 2023)
“Also recorded” adds a separate entry of the source. Values belong to the molecule of their own block, whether it stands above or below them.

Key:
Human VEGF 165 [1] = molecular target: T1, Human VEGF 165 (human, UniProt P15692-4 27-191); assay: BLI, VEGF 165 on probe, t = 0 (repeats Table 15); limit of detection
T1 construct: Loaded on the BLI probe as the ligand; also called BLI ligand Human VEGF 165 (Avi tag, R&D Systems AVI-293-050); not shown: Avi tag

Human VEGF 165 [2] = molecular target: T1, Human VEGF 165; assay: BLI, VEGF 165 on probe; sample aged 11 days at 37 °C
Human VEGF 165 [3] = molecular target: T1, Human VEGF 165; assay: BLI, VEGF 165 on probe, conjugate as analyte, t = 0; value is the limit of detection
Human VEGF 165 [4] = molecular target: T1, Human VEGF 165; assay: BLI, VEGF 165 on probe; sample aged 4 days at 37 °C
Human VEGF 165 [5] = molecular target: T1, Human VEGF 165; assay: BLI; KD after 4 days at 37 °C against KD at t = 0
Human VEGF 165 [6] = molecular target: T1, Human VEGF 165; assay: BLI; KD after 11 days at 37 °C against KD at t = 0
[7] = SEC analysis of MVP stability samples aged at 37° C.; format: physicochemical; conditions: anti-VEGF DARPin MVPs stored up to 71 days at 37° C., compared with Conjugate 2
Experimental: Stability study samples were analyzed using HPLC size exclusion chromatography (SEC). This method was also used to analyze MVP formation and percent unreacted protein after purification. To assess stability via SEC, MVP was filtered to remove particles and analyzed using a Shodex 1 MDa Ohpak LB-804, Shodex KW-404 or 405, or Phenomenex PolySep6000 column with DPBS or appropriate solvent as the mobile phase to get baseline trace at 280 nm, 230 nm, etc. After various time points samples were removed and analyzed using the same SEC method. Increases in retention time and peak width relative to the baseline sample indicated degradation. In addition, decreases in MVP peak area and/or increases in monomer and dimer protein species peak area also indicate MVP degradation. Percent conjugate loss was quantified by comparing peak area differences with time. In the future, the SEC stability analysis will be coupled with MALS to quantify molecular weight and valency changes of the conjugate with age at different temperatures. […]
Stability study samples were also analyzed by coupling SEC with MALS analysis for determination of MVP radius of gyration (Rg,z) and molecular weight at different time points after aging at 37° C. […] System-specific calibration numbers, normalization coefficients, delay volumes, and band broadening terms were determined for the system prior to analysis. […]

Human VEGF 165 [8] = molecular target: T2, Human VEGF 165 (Homo sapiens, UniProt P15692); assay: Accelerated 37° C. stability study, VEGF binding by BLI over time; conditions: DARPin MVPs, aging 28 and 32 days at 37° C., compared with Conjugate 2
T2 construct: Avi; purchased R&D Systems AVI-293-050
T2 sequence (P15692 27-191 isoform P15692-4): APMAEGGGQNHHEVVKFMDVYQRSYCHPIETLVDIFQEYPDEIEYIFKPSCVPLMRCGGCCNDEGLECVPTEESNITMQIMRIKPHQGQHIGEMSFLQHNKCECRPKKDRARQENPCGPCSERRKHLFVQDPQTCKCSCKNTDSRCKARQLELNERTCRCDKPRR
Experimental: MVP stability was assessed by setting up a long term accelerated […] stability by maintaining the MVPs at 37° C. at 5-10X the therapeutic concentration in pH 7.3 vitreous mimetic buffer (Table 19) or pH 7.4 PBS 0.01% tween 20. MVP stability was assessed using SEC MALS or SEC, DLS, and/or BLI analysis of samples removed after various times.
Long-term 37° C. stability studies were set up to assess composition impact on MVP stability. MVPs were synthesized under sterile conditions and diluted to around 0.4 mg/mL in a sterile filtered human vitreous mimetic buffer. This concentration is 5X higher than intravitreal therapeutic concentration of our predicted clinical dose. […] At discrete timepoints, one aliquot from each sample was removed from the plate under sterile conditions and analyzed. […] Then, the protein concentration is measured to adjust for any differences in volume that may have occurred. The binding affinity to is measured using BLI. […] To monitor changes in radius over time, the samples are spun for 5 minutes at 5000 g to remove any large aggregates or dust particles and the Rh is measured using DLS without any sample dilution.
The change in binding affinity over time using biolayer interferometry (BLI) was also determined. […] Analytes were prepared at the top concentration determined in pilot reactions in BLI buffer and serially diluted 1:3 two to five more times using BLI buffer. […]

[9] = format: physicochemical
Experimental: 25× volumes of lysis buffer 25 mM HEPES, 20 mM imidazole, 400 mM sodium chloride, 0.5 mM EDTA, 5% glycerol, 0.01% Tween 20, pH 7.5 were added to E. coli pellets harvested from 25 mL TB culture, and sonicated 5× on ice at 40% output using a probe sonicator. Once lysed, whole cell extracts were clarified at 10K*g and 100 uL of supernatant were aliquoted and subjected to incubations at 50° C., 60° C., 70° C., and 80° C. for 15 minutes, followed by a ten-minute incubation on ice. Thermally precipitated proteins were removed at 10K*g for five minutes, and soluble extract fractions were combined directly with Laemmli sample buffer, denatured, and run on 4-20% SDS-PAGE to evaluate yield and stability.

Kd (Human VEGF 165 [1]): < 0.001 nM | Kd (Human VEGF 165 [2]): 0.648 nM | Kd (Human VEGF 165 [3]): < 0.001 nM | Kd (Human VEGF 165 [4]): 0.654 nM | Change in KD to t = 0 (Human VEGF 165 [5]): 654 fold | Change in KD to t = 0 (Human VEGF 165 [6]): 648 fold
B1: Conjugate 16 (anti-VEGF VHH SEQ ID NO: 91 with aH linker SEQ ID NO: 21 on hyaluronic acid, intermediate 2-6) (VHH)
VHH: DVQLVESGGGLVQPGGSLRLSCAASGRTFSSYSMGWFRQAPGKEREFVVAISKGGYKYDAVSLEGRFTISRDNAKNTVYLQINSLRPEDTAVYYCASSRAYGSSRLRLADTYEYWGQGTLVTVSS
modifications: C-terminal Cys of the peptide linker bound by its thiol to the maleimide of the organic linker MP2H on hyaluronic acid (830 kDa)
notes: Multivalent peptide-hyaluronic acid conjugate (MVP); peptide valency 101; Method 2 intermediate; also called BI VHH anti-VEGF MVP

B2: Conjugate 1: HA conjugate of anti-VEGF DARPin peptide SEQ ID NO: 92, made from Method 5 intermediate 5-4 (MP2H) (conjugate)
chain: GSDLDKKLLEAARAGQDDEVRILMANGADVNARDSTGWTPLHLAAPWGHPEIVEVLLKNGADVNAADFQGWTPLHLAAAVGHLEIVEVLLKYGADVNAQDKFGKTAFDISIDNGNEDLAEILQKAAGGGSGGGS
modifications: hyaluronic acid conjugate; anti-VEGF DARPIN
SEC retention time / radius change with aging [7]: much larger increase in retention time and contraction of radius; also recorded: larger losses in radius with aging | association constant (Kon) initially and with aging (Human VEGF 165 [8]): lower Kon and slower association initially and with aging

B3: aTNFaMu_3MUT: anti-TNFα single domain antibody (mouse), aTNFaMu with three point mutations, SEQ ID NO: 72 (protein)
VHH: QVQLQESGGGLVQAGGSLRLSCAASGGTFSSIIMAWFRQAPGKEREFVGAVSWSGGTTVYADSVKGRFTISRDSARKSVYLQMNSLKPEDTAVYYCAARPYQKYNWASASYNVWGQGTQVTVSS
modifications: aTNF-a mu 3MUT
thermal stability of the protein in E. coli cell extracts [9]: about 70 °C
